For this assay, the target named is T1, recombinant human α5β1 ECD heterodimer (human, UniProt P08648 42-995; P05556 21-728).
T1 construct: integrin α5, human, extracellular domain; integrin β1, human, extracellular domain; also called recombinant heterodimer of integrin ECD (α5β1); source: bought: R&D Systems (3230-A5-050)
In words: pull-down; TMEM2–ECD-His6 (about 5 μg/20 μl) held on ProBond nickel chelating resin; 2 μg recombinant integrin ECD heterodimer incubated in HBSS++ overnight at 4 °C; control unbound resin; blots. As to conditions: both partners purified.

Here are results for 1 molecule from article PMC8042168, “The cell surface hyaluronidase TMEM2 regulates cell adhesion and migration via degradation of hyaluronan at focal adhesion sites” (The Journal of Biological Chemistry, 2021).

T1 sequence (P08648 42-995, chain 1 of 2): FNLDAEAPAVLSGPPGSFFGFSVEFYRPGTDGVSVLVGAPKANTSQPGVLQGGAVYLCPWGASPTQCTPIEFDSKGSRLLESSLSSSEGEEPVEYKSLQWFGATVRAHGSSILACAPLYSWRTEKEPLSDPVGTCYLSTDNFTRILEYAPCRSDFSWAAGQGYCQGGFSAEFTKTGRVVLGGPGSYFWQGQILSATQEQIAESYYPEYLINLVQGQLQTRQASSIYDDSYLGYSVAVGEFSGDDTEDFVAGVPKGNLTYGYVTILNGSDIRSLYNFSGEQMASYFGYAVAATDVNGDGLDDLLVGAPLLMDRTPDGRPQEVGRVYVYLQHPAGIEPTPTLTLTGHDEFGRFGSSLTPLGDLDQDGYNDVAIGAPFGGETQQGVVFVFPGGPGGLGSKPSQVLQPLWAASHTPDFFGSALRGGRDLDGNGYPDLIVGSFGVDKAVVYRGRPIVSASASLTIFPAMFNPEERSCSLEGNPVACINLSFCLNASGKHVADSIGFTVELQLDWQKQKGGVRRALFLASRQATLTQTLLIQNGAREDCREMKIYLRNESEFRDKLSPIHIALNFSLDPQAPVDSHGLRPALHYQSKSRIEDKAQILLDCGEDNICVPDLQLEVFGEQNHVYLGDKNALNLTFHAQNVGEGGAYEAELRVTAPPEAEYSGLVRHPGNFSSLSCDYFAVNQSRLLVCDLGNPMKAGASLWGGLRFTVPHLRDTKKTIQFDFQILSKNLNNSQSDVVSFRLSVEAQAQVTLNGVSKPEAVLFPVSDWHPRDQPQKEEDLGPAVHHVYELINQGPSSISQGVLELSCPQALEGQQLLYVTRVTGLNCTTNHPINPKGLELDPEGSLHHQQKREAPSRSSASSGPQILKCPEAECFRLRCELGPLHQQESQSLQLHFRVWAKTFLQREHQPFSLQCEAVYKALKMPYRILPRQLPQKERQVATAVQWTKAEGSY
T1 sequence (P05556 21-728, chain 2 of 2): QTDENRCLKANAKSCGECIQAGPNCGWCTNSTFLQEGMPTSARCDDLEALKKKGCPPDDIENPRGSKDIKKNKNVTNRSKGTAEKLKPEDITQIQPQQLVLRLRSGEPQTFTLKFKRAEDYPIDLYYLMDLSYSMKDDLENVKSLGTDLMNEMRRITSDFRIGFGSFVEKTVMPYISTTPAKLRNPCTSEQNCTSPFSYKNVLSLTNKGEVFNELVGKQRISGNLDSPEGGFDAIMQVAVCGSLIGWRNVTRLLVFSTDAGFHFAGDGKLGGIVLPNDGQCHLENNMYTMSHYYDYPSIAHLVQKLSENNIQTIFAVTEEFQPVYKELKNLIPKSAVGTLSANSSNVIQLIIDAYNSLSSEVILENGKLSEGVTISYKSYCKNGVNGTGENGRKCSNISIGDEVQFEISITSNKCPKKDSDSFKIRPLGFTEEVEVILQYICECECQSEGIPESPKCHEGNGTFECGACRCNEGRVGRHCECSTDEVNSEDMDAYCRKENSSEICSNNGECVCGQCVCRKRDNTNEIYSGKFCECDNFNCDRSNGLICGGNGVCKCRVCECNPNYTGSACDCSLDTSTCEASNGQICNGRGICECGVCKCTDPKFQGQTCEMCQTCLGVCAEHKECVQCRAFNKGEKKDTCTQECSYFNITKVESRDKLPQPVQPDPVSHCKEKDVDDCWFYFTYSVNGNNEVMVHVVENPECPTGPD

B1: recombinant soluble TMEM2 extracellular domain, 6x His-tagged (domain or fragment, mouse, UniProt Q5FWI3 104-1383, looked up)
chain: SSKYAPDENCPDQNPRLRNWDPGQDSAKHIVIKEGDLFRLTSDATVDSIVIQDGGLLVFGDDKDGSKNITLRTRYILIQDGGALHIGAEKCRYRSKATITLYGKSDERESMPIFGKKFIGVEAGGTLELHGAQRTSWTMLARTLHSSGLPFGSYAFEKDFSRGLNVRVIDQDTARVLENEKFDTHEYHNESRRLQEFLRAQEPGRIVAIAVGDSAVKSLLQGTIQMIQDRLGSKLIQGLGYRQAWALVGVIDGGSSSCNESVRNYENHSTGGKALAQGEFYTLDGQKFSVTAYSEWSQGISLSGFRVDIADGVKLHLLDDVSTWEAGDRIVVASTDYSMYQAEELTLLRCPECSRSQVKVKEIPQYLHVGEIIDGIDMRAEVGLLTRNIVIQGEMEDSCYAENHCQFFDYDTFGGHVMIEKNFTSVHLSYVELKHMGQQHMGRYPVHFHLCGDVDSKGGYSQPASVDGLSVHHSFSRCITVHGTSGLLIKDTIGFDTLGHCFFLEDGVEQRNILYHNLGLLTKPGTLLPTDRNSSMCTVMRDGVFGNYVPVPTTDCMAVSTFWIAHPNNHLINNAAAGSQDAGIWYLFHKEPTGESSGLQLLEKPELTPLGIFYNNRVHSNFKAGLFVDKGVKTTNASASDPREYLCLDNSARFRPHQDADPEKPRVAAIIDRLIAFKNNDNGAWVRGGDIIVQNSAFADNGKGLTFASDGSFPSDEGSSQEVTESLFVGESRNYGFQGGQNKYMGTGGIDQKPRTLPRNRTFPIRGFQIYDGPIHLTKSTFKKYVPTPDRYSSAIGFLMKNSWQTTPRNNVSLVKFGPQVSLNVFFGKPGPWFEDCELDGDKNSIFHDIDGSVTGYKDTYVGRMDNYLIRHPNCVNVTKWNAVICSGTYAQVYVQTWNTPNLSMIITRDEYPSHPMVLRGINQRAISPQYQPVVMLEKGYTIHWNGPAPRTTFLYLVNFNKDDWIRVGLCYPANTSFQVTVGFLQRQNGSLSRIEDYEPARSMEELQKKPSERKFYFDSGTGLLFLYLRAHSHRDGHSYCSSQGCERVKIQAATDSKDISNCMAKAYPQYYKKPSAVKRMPAMLTGLCQGCGTHQMVFTSDPHKSYLPVRFQSPGKAEIQRGDPSIISVNGTDFTFRSAGALLLIVDACSVPFRVKEKRMFLSADVSHMEEYFKASIPPRSIVLLSTRGEIKQLNISDSLAVLGLAKPAHLYSKGSVVFLGFSGNFAPSWTKLFTSPDEQGLGVLEQFLPLQMEEYGCSRTGSVHRRDLDLLQQALKVL
notes: transmembrane protein 2 (TMEM2; CEMIP2), mouse, extracellular domain Ser104–Leu1383; in pSecTag2A with the C-terminal Myc peptide removed; the vector supplies a secretion leader (surmised); also called TMEM2 ECD; TMEM2–ECD; not shown: His6, C-terminal, kept
As for B1, the binding result was “binds”.
